Source: the supplement of paper PMC10724198
± gives the standard deviation of the averaged measurements.

tested on: Saccharomyces cerevisiae; assay: protein stability index of tFT-peptide fusion (C-terminal peptide) (PSI (0-1 scale)); higher = more stable (slower turnover); conditions: genetic background: wild type; temperature: 30 C
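Note: PSI is a weighted mean of sequencing reads over stability bins, variants kept only with over 10 reads, mCherry proximal and sfGFP distal, peptide attached via GGGS linker.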

NINKINKKCTRV and NKEYSLIIKTHN are within error of each other in protein stability index: 0.645 ± 0.055 for the first, 0.61529 ± 0.00011 for the second.

NKISRDAVWNCR and NKKDKKMNKDKR are within error of each other in protein stability index: 0.657 ± 0.053 for the first, 0.6791 ± 0.0014 for the second.

NKNKKKKEKKSR and NKPRSYRVDKRQ are within error of each other in protein stability index: 0.725 ± 0.12 for the first, 0.615 ± 0.015 for the second.

NKRIRKIKKKCK and NKRSNIKVSDQR are within error of each other in protein stability index: 0.701 ± 0.065 for the first, 0.691 ± 0.03 for the second.

Compared with NKTKKKRTEPQP, NKTNSKKSIFTV is higher in protein stability index: 0.6616 ± 0.005 for the first, 0.703 ± 0.01 for the second.

First: NLAVSFIVGGLW
Second: NLCPLPPPLLTS
The protein stability index of the first is higher: 0.747 ± 0.026 for the first, 0.675 ± 0.035 for the second.

NLINPCRRPPVP and NLRFTTSCNGPL are within error of each other in protein stability index: 0.648 ± 0.088 for the first, 0.649 ± 0.018 for the second.

Going from NLRGPEYVKRTD to NLSYPSCDPPAT, the protein stability index falls from 0.677 ± 0.021 to 0.5836 ± 0.0032.

Compared with NNLSPLPGPSLI, NNSLKTTMVATK is lower in protein stability index: 0.713 ± 0.018 for the first, 0.58 ± 0.065 for the second.

Compared with NNYPHSEKCLKE, NPPALPPFSPSP is higher in protein stability index: 0.643 ± 0.009 for the first, 0.708 ± 0.01 for the second.

First: NPPCPYPPLRPR
Second: NPVYSFRAHRLG
The protein stability index of the first is higher: 0.595 ± 0.044 for the first, 0.5128 ± 0.0037 for the second.

Compared with NRDIYQNWPKRK, NRGLYNLYRMSR is lower in protein stability index: 0.831 ± 0.14 for the first, 0.645 ± 0.0027 for the second.

Compared with NRHGRALPSLEA, NRNKKTKKKVII is higher in protein stability index: 0.644 ± 0.014 for the first, 0.6697 ± 0.0062 for the second.

NRRVSGPLCMQE and NRSKNKKIIREI are within error of each other in protein stability index: 0.687 ± 0.054 for the first, 0.6341 ± 0.0056 for the second.

NRTRFLSLDTRP and NSAPPPPHTPPP are within error of each other in protein stability index: 0.719 ± 0.023 for the first, 0.699 ± 0.018 for the second.

Compared with NSSADRSTNPTQ, NSSLSLPFGPPP is higher in protein stability index: 0.649 ± 0.019 for the first, 0.69 ± 0.011 for the second.

NSTPTTPPIPHQ and NSTTNVKTQHTL are within error of each other in protein stability index: 0.702 ± 0.091 for the first, 0.731 ± 0.023 for the second.

NSTTQKKEQKQI and NSVMSRGCGNRG are within error of each other in protein stability index: 0.711 ± 0.043 for the first, 0.626 ± 0.044 for the second.

First: NTNSTRSDNVFD
Second: NTPHSRSLRSNH
The protein stability index of the first is lower: 0.622 ± 0.011 for the first, 0.695 ± 0.017 for the second.

Compared with NTTTTKNRTPKR, NVACNGKGEQVL is higher in protein stability index: 0.6952 ± 0.0063 for the first, 0.7268 ± 0.0011 for the second.

NVCICSIRNATN and NVENSNTAGKGV are within error of each other in protein stability index: 0.804 ± 0.11 for the first, 0.689 ± 0.024 for the second.

NVKPGKIRRRRG and NVLVSPFVPLSF are within error of each other in protein stability index: 0.667 ± 0.14 for the first, 0.724 ± 0.0089 for the second.

NWAPRCCIGNII and NWIIARFVPIGL are within error of each other in protein stability index: 0.669 ± 0.12 for the first, 0.685 ± 0.041 for the second.

Going from NYLLYSRRSVRV to PACPLISPIGRF, the protein stability index rises from 0.532 ± 0.04 to 0.673 ± 0.05.

PADLCPPGSLSP and PADSRGNSPPPQ are within error of each other in protein stability index: 0.683 ± 0.01 for the first, 0.675 ± 0.055 for the second.

PAHPGRPPILGS and PAHRRLLPWPPA are within error of each other in protein stability index: 0.597 ± 0.036 for the first, 0.71 ± 0.14 for the second.

PAIPPPPTAAPT and PAKNKKKKKNRK are within error of each other in protein stability index: 0.678 ± 0.087 for the first, 0.6911 ± 0.0031 for the second.

Compared with PALASHLAPLDP, PALPAPFLSSPH is lower in protein stability index: 0.6958 ± 0.0049 for the first, 0.6737 ± 0.00099 for the second.

PALPFPPLTAFH and PAPDATQRVRSQ are within error of each other in protein stability index: 0.683 ± 0.036 for the first, 0.645 ± 0.0089 for the second.

PAPLPFPLPTSL and PAPPAPTHAPPL are within error of each other in protein stability index: 0.757 ± 0.015 for the first, 0.683 ± 0.11 for the second.

PAPPCPGTSPFP and PAPPFPPRPSPF are within error of each other in protein stability index: 0.7055 ± 0.001 for the first, 0.673 ± 0.056 for the second.

First: PAPPHPRIPSPT
Second: PAPPLPLTPPPL
The protein stability index of the first is lower: 0.669 ± 0.073 for the first, 0.788 ± 0.014 for the second.

PAPPPLPPHSLP and PAPPPPPPPLYP are the same in protein stability index: 0.718 ± 0.024 for the first, 0.718 ± 0.013 for the second.

PAPPPPPPTPPP and PAPPPPPPTTVL are within error of each other in protein stability index: 0.646 ± 0.039 for the first, 0.691 ± 0.03 for the second.

Compared with PAPPPRDLPTPP, PAPPPRRPPAPP is higher in protein stability index: 0.664 ± 0.007 for the first, 0.689 ± 0.017 for the second.

PAPPPSSPRSIH and PAPPSLAAPRGT are within error of each other in protein stability index: 0.674 ± 0.032 for the first, 0.663 ± 0.0092 for the second.

PARLPSPSHPAS and PARPLSRPPLPP are within error of each other in protein stability index: 0.776 ± 0.063 for the first, 0.72 ± 0.052 for the second.

Going from PARTSAPPSPLI to PASEVLFMEFVT, the protein stability index rises from 0.686 ± 0.0075 to 0.753 ± 0.026.

PASIVPPPPVPL and PASPFPQTCPPP are within error of each other in protein stability index: 0.777 ± 0.13 for the first, 0.737 ± 0.074 for the second.

Compared with PASPHPPSPSPL, PASPPPAPRPPP is higher in protein stability index: 0.604 ± 0.022 for the first, 0.65 ± 0.0081 for the second.

PASPRDPLPRLP and PASYSAPVSLFI are within error of each other in protein stability index: 0.764 ± 0.12 for the first, 0.7035 ± 0.002 for the second.

Compared with PATPPFSLPPPH, PAVCIPLPARQL is higher in protein stability index: 0.669 ± 0.025 for the first, 0.743 ± 0.026 for the second.

PCIRRRSISTLP and PCLGATSNTGRY are within error of each other in protein stability index: 0.775 ± 0.11 for the first, 0.732 ± 0.045 for the second.

PCMLSEATQQAH and PCPPLPGILSSL are within error of each other in protein stability index: 0.668 ± 0.049 for the first, 0.674 ± 0.035 for the second.

Compared with PCWPARVWVSFL, PDASRRVPPPPD is higher in protein stability index: 0.504 ± 0.013 for the first, 0.663 ± 0.066 for the second.

PDDGLSAPPAAF and PDFPPSRTPPEF are within error of each other in protein stability index: 0.722 ± 0.14 for the first, 0.624 ± 0.022 for the second.

PDGPSIVVPGQG and PDLTVYNLCGGC are within error of each other in protein stability index: 0.678 ± 0.017 for the first, 0.774 ± 0.098 for the second.

PDPPAPLPPHPV and PDRPPVARATRP are within error of each other in protein stability index: 0.669 ± 0.053 for the first, 0.719 ± 0.017 for the second.

PDRPYPPPLVAR and PDSLHTLRPPPP are within error of each other in protein stability index: 0.694 ± 0.058 for the first, 0.653 ± 0.022 for the second.

Going from PEDRCLDLLILC to PEPMYHNSLFRP, the protein stability index rises from 0.5236 ± 0.004 to 0.737 ± 0.018.

PERPDPPVNDRN and PETIIENIMKRR are within error of each other in protein stability index: 0.62 ± 0.029 for the first, 0.688 ± 0.22 for the second.

PFCYALPWAPPR and PFFRASFSGLID are within error of each other in protein stability index: 0.644 ± 0.076 for the first, 0.681 ± 0.061 for the second.

PFIYSLPAPLPF and PFLHQRLLDSVL are within error of each other in protein stability index: 0.72 ± 0.035 for the first, 0.726 ± 0.1 for the second.

PFLLPPLPPGPL and PFLPSPHPSPSS are within error of each other in protein stability index: 0.706 ± 0.062 for the first, 0.713 ± 0.022 for the second.

PFPCPSLPPPFP and PFPFSPPHSLVS are within error of each other in protein stability index: 0.716 ± 0.022 for the first, 0.743 ± 0.027 for the second.

First: PFPHPPPPSPTP
Second: PFPPPHTPLPPS
The protein stability index of the first is lower: 0.687 ± 0.021 for the first, 0.791 ± 0.016 for the second.

First: PFPPPPRLHLPP
Second: PFPPPSAPPPSP
The protein stability index of the first is lower: 0.648 ± 0.04 for the first, 0.71 ± 0.015 for the second.

PFPRPLSPLPFR and PFPSIPLPPPSR are within error of each other in protein stability index: 0.75 ± 0.074 for the first, 0.703 ± 0.03 for the second.

PFQPPSLIPSRH and PFSSPDLLRCPH are within error of each other in protein stability index: 0.746 ± 0.026 for the first, 0.752 ± 0.024 for the second.

PFSVDLPWPPWE and PFSVQLPDVDCL are within error of each other in protein stability index: 0.806 ± 0.053 for the first, 0.715 ± 0.16 for the second.

Compared with PFSWRPLSSPTA, PFVIKSWSYVTR is lower in protein stability index: 0.757 ± 0.004 for the first, 0.605 ± 0.02 for the second.

First: PFVSGLSGQHEQ
Second: PFVSGWEKGRSF
The protein stability index of the first is lower: 0.637 ± 0.011 for the first, 0.757 ± 0.033 for the second.

First: PFYTNSSFCSLT
Second: PGASAKPHSSAN
The protein stability index of the first is lower: 0.6677 ± 0.00075 for the first, 0.712 ± 0.031 for the second.

PGGQLRSHPPNV and PGIHRPLAVEDL are within error of each other in protein stability index: 0.718 ± 0.013 for the first, 0.676 ± 0.032 for the second.

PGKSGRKLVSSG and PGLDPFHGMNLS are within error of each other in protein stability index: 0.681 ± 0.012 for the first, 0.6906 ± 0.0027 for the second.

PGLQFPIWGVKG and PGPPPGTDAFQH are within error of each other in protein stability index: 0.71 ± 0.045 for the first, 0.718 ± 0.12 for the second.

First: PGRSMCITLVKT
Second: PGSADGPATYPL
The protein stability index of the first is lower: 0.595 ± 0.0078 for the first, 0.65 ± 0.03 for the second.

First: PGSLVLSVVDLV
Second: PGSQPPFVPPPR
The protein stability index of the first is higher: 0.683 ± 0.056 for the first, 0.604 ± 0.019 for the second.

PGSSLAPAPPPP and PGSYLDAIVYHR are within error of each other in protein stability index: 0.683 ± 0.0088 for the first, 0.701 ± 0.01 for the second.

Going from PGTGGHKRASPV to PGWGPLVARRFV, the protein stability index rises from 0.6293 ± 0.0016 to 0.735 ± 0.025.

Compared with PGYFGHVKLSCS, PHAAERRKPCAP is higher in protein stability index: 0.646 ± 0.023 for the first, 0.768 ± 0.011 for the second.

First: PHAPCPRPSVTV
Second: PHAPHFSRSIPS
The protein stability index of the first is lower: 0.625 ± 0.086 for the first, 0.745 ± 0.027 for the second.

PHAPQSPGWLHG and PHASLLPPSLSR are within error of each other in protein stability index: 0.7 ± 0.028 for the first, 0.728 ± 0.0085 for the second.

Compared with PHASRRPPTLLC, PHATPPPTRPPS is higher in protein stability index: 0.514 ± 0.01 for the first, 0.777 ± 0.062 for the second.

PHFSSLPWAPPG and PHGSLPTRLPGP are within error of each other in protein stability index: 0.749 ± 0.041 for the first, 0.689 ± 0.035 for the second.

PHIRPPQCTRPI and PHLANLFTWSSC are within error of each other in protein stability index: 0.737 ± 0.015 for the first, 0.66 ± 0.092 for the second.

PHLPPLPPAPPP and PHLPPRPFPTAP are within error of each other in protein stability index: 0.724 ± 0.12 for the first, 0.757 ± 0.063 for the second.

PHNPFPTRTPPP and PHNRSNSWPNPR are within error of each other in protein stability index: 0.71 ± 0.039 for the first, 0.714 ± 0.054 for the second.

PHPERLLCPPYP and PHPGQSAPPRPP are within error of each other in protein stability index: 0.68 ± 0.024 for the first, 0.654 ± 0.038 for the second.

PHPPGFGPGRTL and PHPPLPLSPPPP are within error of each other in protein stability index: 0.698 ± 0.068 for the first, 0.72 ± 0.0084 for the second.
